Assay results taken from patent publication US7067274B2, “Compositions and methods for the screening pro-apoptotic compounds” (Genentech, Inc., priority 2003, dated 2006).

How the values were obtained:
caspase-9 = biological target: T1, caspase-9 (Homo sapiens, UniProt P55211); experiment: Caspase-9 co-immunoprecipitation in transfected 293T cells; format: cell-based; conditions: Flag-tagged BIR domain proteins, IP anti-Flag
T1 construct: expressed in transfected cells; host or cells: 293T cells
T1 sequence (P55211 1-315 limits assumed): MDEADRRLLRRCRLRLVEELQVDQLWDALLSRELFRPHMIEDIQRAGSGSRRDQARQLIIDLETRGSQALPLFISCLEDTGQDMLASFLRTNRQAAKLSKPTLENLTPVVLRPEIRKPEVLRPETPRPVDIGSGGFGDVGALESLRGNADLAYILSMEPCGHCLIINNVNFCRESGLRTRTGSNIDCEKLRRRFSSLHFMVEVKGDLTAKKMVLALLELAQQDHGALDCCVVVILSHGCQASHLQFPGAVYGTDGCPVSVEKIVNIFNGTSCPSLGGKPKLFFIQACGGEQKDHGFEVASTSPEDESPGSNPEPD
T1 sequence (P55211 331-416 limits assumed): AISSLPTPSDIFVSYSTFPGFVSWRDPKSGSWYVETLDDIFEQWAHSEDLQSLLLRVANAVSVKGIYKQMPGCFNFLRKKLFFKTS
Method: 293T cells were transiently transfected with caspase-9 and Flag-tagged BIR domain proteins or vector. After 40 h, cells were lysed in NP40 lysis buffer (120 mM Tris, 150 mM NaCl, 1% NP-40, 1 mM DTT and protease inhibitor cocktail) and lysates immunoprecipitated (IP) with anti-Flag antibody. Samples were then Western blotted with anti-caspase-9 and anti-Flag antibodies. […] When overexpressed, caspase-9 undergoes autocatalytic processing and it is the processed form that physically interacts with XIAP and ML-IAP BIR domains.

ΔCARD human caspase 9 = biological target: T2, ΔCARD human caspase 9 (Homo sapiens, UniProt P55211, D305A/E304A/E306A); experiment: Determination of caspase-9 inhibitory constants (Ac-LEHD-AFC hydrolysis); format: biochemical; conditions: 300 nM ΔCARD caspase 9, 100 μM Ac-LEHD-AFC, 37° C.; read-out: Caspase-9 inhibition Ki(app)
T2 construct: made in house
T2 sequence (P55211 139-315 E304A/D305A/E306A limits assumed): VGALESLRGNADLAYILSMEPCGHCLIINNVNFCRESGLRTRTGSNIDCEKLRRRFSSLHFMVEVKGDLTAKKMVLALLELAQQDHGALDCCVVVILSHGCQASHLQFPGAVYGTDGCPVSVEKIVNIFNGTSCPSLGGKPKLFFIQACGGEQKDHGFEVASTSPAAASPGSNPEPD
T2 sequence (P55211 316-416 limits assumed): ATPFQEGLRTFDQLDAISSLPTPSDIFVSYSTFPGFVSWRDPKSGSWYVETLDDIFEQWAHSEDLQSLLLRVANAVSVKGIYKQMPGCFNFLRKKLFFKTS
Method: ΔCARD (caspase recruitment domain) human caspase 9 (lacking the first 138 residues) with Ala substitutions at residues 304 to 306 was produced as described previously (Boatright et al., (2003) Mol Cell 11: 529–541). The third BIR of […] (residues 252–348) was also prepared as described previously (Sun et al., (2000) J Biol Chem 275(43): 33777–81).
Determination of Caspase-9 Inhibitory Constants: Recombinant ΔCARD caspase 9 (300 nM final concentration in the assay) was preactivated in salt-free caspase buffer (20 mM PIPES, 10 mM EDTA, 0.1% CHAPS and 10% (w/v) sucrose, pH 7.2) for 15 min at 37° C. Following this, a range of inhibitor concentrations were preincubated with the enzyme for 20 min at 37° C. The assay was started by the addition of Ac-LEHD-AFC (100 μM final concentration) and measured kinetically for 30 min using an fmax Fluorescence Plate Reader (Molecular Devices) at an excitation wavelength of 405 nm and an emission wavelength of 510 nm. Reaction mixtures were thermostatically controlled at 37° C. The individual Ki values for the inhibitors [I] were determined from the uninhibited substrate hydrolysis rate (vo) and the inhibited rates (vi), so that a plot of (vo/vi)−1 against [I] gives Ki(app), the equilibrium inhibition constant in the presence of substrate (Salvesen and Nagase, (1989) Proteolytic enzymes: A practical approach. R. J. Beynon and J. S. Bond. Oxford, IRL Press: 83–104).

[1] = biological target: Hid-FAM (5-carboxyflourescein-conjugated AVPFAK(5-FAM)K); experiment: Fluorescence polarization affinity measurement with Hid-FAM probe; format: binding; conditions: 5 nM Hid-FAM, apparent Kd from EC50
Method: Polarization experiments were performed on an Analyst™ HT 96-384 (Molecular Devices Corp.). […] The reactions were read after an incubation time of 10 minutes at room temperature with standard cut-off filters for the fluorescein fluorophore (λex=485 nm; λem=530 nm) in 96-well black HE96 plates (Molecular Devices Corp.). Fluorescence polarization values were plotted as a function of the protein concentration, and the EC50 values were obtained by fitting the data to a 4-parameter equation using Kaleidagraph™ software (Synergy software, Reading, Pa.). The apparent Kd values were determined from the EC50 values.
(§1) The binding affinity of the Hid-FAM probe for each of the BIR domains was determined directly using a fluorescence polarization-based assay and the result is shown graphically in FIG. 8.

[2] = biological target: Smac-9mer peptide (AVPIAQKSE); experiment: Fluorescence polarization competition assay, Smac-9mer peptide; format: binding; conditions: competition with 5 nM Hid-FAM probe, Ki from IC50
Method: (§2) Samples were read after a 10-minute incubation. Fluorescence polarization values were plotted as a function of the antagonist concentration, and the IC50 values were obtained by fitting the data to a 4-parameter equation using Kaleidagraph™ software (Synergy software; Reading, Pa.). Inhibition constants (Ki) for the antagonists were determined from the IC50 values (Keating et al., (2000) Putting the pieces together: contribution of fluorescence polarization assays to small-molecule lead optimization. Proceedings of SPIE: In-Vitro Diagnostic Instrumentation.).

[3] = biological target: wild-type mature Smac protein; experiment: Fluorescence polarization competition assay, mature Smac protein; format: binding, human; conditions: competition with 5 nM Hid-FAM probe, Ki from IC50
Method: A PCR product containing amino acids 56–239 of Smac/DIABLO (accession number SMAC_HUMAN) was cloned into the XbaI/XhoI sites of a pet21b+ (Novagen) generating a C-terminal His6 fusion. Pet21bSmac was transformed into Escherichia coli strain BL21(DE3) competent cells (Stratagene). Overnight cultures were diluted 1:100 and grown at 37° C. in LB media with 50 μg/ml carbenicillin to an A600 of 0.8 with vigorous shaking. Isopropyl-β-D-1-thiogalactopyranoside (IPTG) was added to a final concentration of 1 mM and cultures were grown overnight at 16° C. Cell pellets were resuspended in Buffer A (50 mM Tris (pH 8.0), 300 mM NaCl, 0.5 mM PMSF, 2 mM benzamidine, 5 mM β-mercaptoethanol) with 5 mM imidazole and placed on ice for 30 minutes. Cells were homogenized, microfluidized, and centrifuged at 15,000 rpm for 45 minutes. Supernatant was loaded onto a Ni-NTA agarose column (Qiagen™), washed with 10 column volumes Buffer A with 10 mM imidazole, and eluted with 10 column volumes Buffer A with 300 mM imidazole. Fractions containing Smac protein were pooled, concentrated and loaded on a Superdex™ 200 sizing column. Protein eluted over one column volume into 50 mM Tris (pH 7.6), 300 mM NaCl, 0.5 mM PMSF, 2 mM benzamidine and 5 mM DTT. Fractions containing Smac protein were pooled and dialyzed against 3 changes of buffer containing 50 mM Tris (pH 7.6), 0.5 mM PMSF, 2 mM benzamidine and 5 mM DTT. The dialyzed sample was loaded onto a Q-Sepharose™ FF column (Pharmacia) and eluted over a 10 column volume gradient from zero to 1 M NaCl in buffer 50 mM Tris (pH 7.6), 0.5 mM PMSF, 2 mM benzamidine and 5 mM DTT. The cDNA encoding full-length ML-IAP plus a N-terminal His6-tag was cloned into the pET15b(+) expression vector (Novagen). ML-IAP was expressed in E. coli strain BL21(DE3)pLysS. […] The protein concentration of purified proteins was determined from the absorbance at 280 nm based on the molar absorption coefficients calculated from the Edelhoch relationship (Edelhoch, (1967) Biochemistry 6: 1948–1954).
as §2, §1

MCF7 cells = experiment: Inhibition of doxorubicin-induced apoptosis in transfected MCF7 cells; format: cell-based; conditions: MCF7 cells transiently transfected, doxorubicin 0.5 μg/ml
Method: MCF7 cells were transiently transfected with the reporter plasmid pCMV-βgal and either vector control alone or BIR domain constructs. Following transfection, cells were exposed to doxorubicin (adriamycin; 0.5 μg/ml), stained with X-gal and apoptosis assessed by counting live and dead transfected cells. Percentage apoptosis represents the mean value of at least four sample points and is representative of three independent experiments.

B1: ML-IAP-BIR: wild-type ML-IAP BIR domain construct, amino acids 63–179 of accession number BIR7_HUMAN (protein)
chain: TEEEEEEGAGATLSRGPAFPGMGSEELRLASFYDWPLTAEVPPELLAAAGFFHTGHQDKVRCFFCYGGLQSWKRGDDPWTEHAKWFPSCQFLLRSKGRDFVHSVQETHSQLLGSWDP
modifications: left off: small tags and cut ends
caspase-9 binding efficiency (co-immunoprecipitation, Western blot) (caspase-9): co-imnunoprecipitates processed caspase-9 | Ki (ΔCARD human caspase 9): 3.2 µM | Kd [1]: 0.021 µM | Ki [2]: 0.2 µM | Ki [3]: 0.026 µM | inhibition of doxorubicin-induced apoptosis (MCF7 cells): confers resistance
